Reference: publication doi:10.1101/2025.05.03.652001

Biological target: E. coli lipoic acid ligase (LplA) variant A48N on the W37V background (E. coli)
Assay: SEC-SAXS; SEC-SAXS of purified LplA variant with lipoyl-AMS; DENSS ab initio envelope fitted with the major conformer; high protein concentrations required for SAXS; dimer model generated by AlphaFold3

“E. coli lipoic acid ligase (LplA) variant A48N on the W37V background (enzyme)” was tested, and the stoichiometry N was 2.
